In EP0938497B1:

Target: IgG
Assay: microcalorimetry and surface plasmon resonance

“locked helix peptide FNM(5)QQRRFY(6)ALH, cyclized (Fig. 11)” showed a Kd of 100 µM.
